Reference: patent publication US20090155255A1 (Biogen, published 2009)

What was measured:
[1] = molecular target: T1, soluble CD23 antigen (soluble and monomeric form) (UniProt P06734 150-321, limits assumed); assay: isothermal titration calorimetry, average over temperatures
T1 construct: also called free CD23
T1 sequence (looked up): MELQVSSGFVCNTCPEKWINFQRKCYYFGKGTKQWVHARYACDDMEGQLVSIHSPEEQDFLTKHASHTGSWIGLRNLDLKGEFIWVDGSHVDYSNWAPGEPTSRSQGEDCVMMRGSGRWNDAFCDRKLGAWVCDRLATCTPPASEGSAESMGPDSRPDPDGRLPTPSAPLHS
Method: Isothermal titration calorimetry (ITC) accurately measures the thermodynamics of protein-protein interactions and can further provide the stoichiometry of the experimental complex. CD23, C-terminal tetravalent p5E8, p5E8 IgG and p5E8 Fab were extensively dialyzed for 12 hours against PBS. ITC experiments were performed on an iTC200 microcalorimeter (MicroCal LLC, Northampton, Mass.). After degassing, 25×1.5 μl aliquots of 100 μM CD23 were injected at 5 minute intervals into the 350-μl sample cell containing 5 μM solutions of antibody/Fab. Raw data were then integrated and fitted using a nonlinear least squares routine in ITC data analysis software ORIGIN (MicroCal LLC, Northampton, Mass.). The fitting generated values for the independent variables ΔH⁰ (binding enthalpy), N (the stoichiometry), and Kb (binding constant). For each antibody/Fab, ITC experiments were performed at 5° C., 15° C., 25° C., and 37° C. in order to determine the temperature dependence on the binding heats and to optimize the experiments to obtain better signal to noise.
The CD23 in the syringe and the antibody in the sample cell are both monomers in solution. On fitting the data, N values approximating 1, 2, and 4 would indicate binding of all available antigen binding sites for the p5E8 Fab, p5E8 IgG and the C-terminal tetravalent p5E8, respectively. […]

[2] = molecular target: T1, soluble CD23 antigen (soluble and …); assay: solution-phase competition Biacore, free CD23 read on an immobilised p5E8 chip; average of three titrations
Method: In this experiment, the concentration of free CD23 (soluble and monomeric form) in solution is determined by the initial rate of binding to a CM5 Biacore chip containing immobilized p5E8 MAb. Into these CD23 solutions were titrated the p5E8 Fab prepared by papain digestion (one potential binding site), p5E8 MAb (two potential binding sites), and the C-terminal anti-CD23 tetravalent antibody (four potential binding sites). The p5E8 Fab, MAb, and tetravalent antibody are the ligands and CD23 is the analyte being tested.
P5E8 was immobilized to 20247 RUs on a CM5 sensor chip. CD23 and CD23 plus antibody were flowed over the sensor chip at a 10 μl/min for 3 minutes. Initial binding rates were obtained from a fit to the initial linear portion of the raw sensorgram data (FIG. 23A). The N (stoichiometry) values were determined by plotting the antibody concentration against the initial rate, Vᵢ, obtained at each concentration (FIG. 23B). […] Three experiments measured the initial rates of binding of free CD23 to the p5E8 sensor chip (concentrations for CD23 ranged from 0.15 to 15 nM) in the presence of constant concentrations of antibody of 1, 2.5 and 10 nM. […] The calculated stoichiometries correspond to binding of CD23 antigen to all four available antigen binding sites for the C-terminal tetravalent p5E8.

B1: PRIMATIZED p5E8 Fab (Fab, V domains shown)
VH: EVQLVESGGGLAKPGGSLRLSCAASGFRFTFNNYYMDWVRQAPGQGLEWVSRISSSGDPTWYADSVKGRFTISRENAKNTLFLQMNSLRAEDTAVYYCASLTTGSDSWGQGVLVTVSS
VL: DIQMTQSPSSLSASVGDRVTITCRASQDIRYYLNWYQQKPGKAPKLLIYVASSLQSGVPSRFSGSGSGTEFTLTVSSLQPEDFATYYCLQVYSTPRTFGQGTKVEIKR
notes: domain: CH1
Avg. N (stoichiometry) [1]: 0.99
N (stoichiometry, CD23 molecules bound per antibody) [2]: 1.05
